Data on 15 molecules can be found in patent publication US20170052184A1 (published 2017).

Where a chain is given by its changes, count along the chain named.

In assay [1] the target is T1, HCV Core1-169 (hepatitis C virus (HCV-1), UniProt P26664 1-169).
T1 sequence: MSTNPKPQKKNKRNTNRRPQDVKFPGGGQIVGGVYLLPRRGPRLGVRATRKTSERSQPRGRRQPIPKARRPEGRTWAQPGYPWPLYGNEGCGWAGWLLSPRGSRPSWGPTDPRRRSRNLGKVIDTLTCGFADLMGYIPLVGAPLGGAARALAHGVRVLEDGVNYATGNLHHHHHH
Nature of the assay: SPR sandwich, capture mAb C11-7.

In assay [2] the target is T1, HCV Core1-169. Nature of the assay: SPR sandwich, capture mAb C11-3.
For assay [3], the target named is T1, HCV Core1-169. Nature of the assay: SPR sandwich, capture mAb C11-14.
Assay [4] deals with T2, HCV Core 134-171-TT Peptide (hepatitis C virus (HCV-1 numbering) …).
T2 construct: also called ALRZ-9 peptide
Nature of the assay: SPR, captured mAb, peptide analyte. A general note: In SPR one partner is held on a chip, and binding of the other changes the refractive index at the surface.

For assay [5], the target named is T1, HCV Core1-169. The assay can be described thus: SPR sandwich, capture mAb C11-9.

B1: HCV 208B-560 (antibody, V domains shown)
VH: EVQLQQSGPELEKPGASVKISCKTSGYTFTEYAMHWVKQSHGMSLEWIGGINPSNGNAIYNQIFKDKATLTVDRSSSTAYMGLRSLTFGDSGVYFCVRRQLDFFDYWGQGASLTVSS
VL: DIVVTQSPASLAVSLGQRATISCRASQSVSTSRYSYLHWYQQKPGQPPKLLIKYASNLESGVPARFSGSGSGTDFTLNIHPVGEEDTATYYCQHSWEFPFTFGSGTKLEIKR
As to B1, the expected percent binding in assay [1] is 15.5%; in assay [2], 10.6%; in assay [3], 12%; in assay [5] it was 8.3%. Further, in assay [4], the Kd (in general, the constant that tells how readily two partners part at equilibrium) was found to be 0.23 nM. In addition, the koff (usually the rate constant with which the complex falls apart) in assay [4] came out at 0.00026 s⁻¹. The kon (as a rule, the second-order rate constant of association) in assay [4] was determined as 1.1e+06 M⁻¹ s⁻¹.

B2: HCV 208A-830 (antibody, V domains shown)
VH: EVRLQQPGPEVEKPGASVKISCKTSGYTFTEYAIHWVKQSHGESLEWIGGINPSNGDPIYNQIFKDKATLTVDRSSNTAYMGLRSLTVGDSGVYFCVRRQLDYFDFWGQGASLTVSS
VL: B1 VL with V4L, A25S, T87P
B2: the expected percent binding in assay [1] was 14.7%; in assay [2], 11.9%; in assay [3], 11.7%; in assay [5], 7.9%. In assay [4], this molecule returned a Kd of 0.16 nM. This molecule also gave a koff in assay [4] of 0.00054 s⁻¹. This molecule also gave a kon in assay [4] of 3.4e+06 M⁻¹ s⁻¹.

B3: HCV 208A-557 (antibody, V domains shown)
VH: QGQMQQSGAELVKPGASVKLSCKTSGFTFSSSYISWLKQKPGQSLEWIAWIYAGTGNTNYNQKFTDKAQLTVDTSSSTAYMQLSSLTTEDSAIYYCAISGTGFTYWGQGTLVTVSA
VL: B1 VL with V3A, V4L, L37M, K49E, E97D
Consider B3, for which the expected percent binding in assay [1] turned out to be 21.4%; in assay [2], 17.7%; in assay [3], 17.6%; in assay [5] it was 13.3%. Further, the Kd in assay [4] is 0.091 nM. In addition, in assay [4], the koff amounted to 0.00021 s⁻¹. Further, the kon in assay [4] was 2.4e+06 M⁻¹ s⁻¹.

B4: HCV 208A-605 (antibody, V domains shown)
VH: B1 VH with M34I
VL: B1 VL
With B4, the expected percent binding in assay [1] is 19.3%; in assay [2] it was 15.9%; in assay [3], 15.8%; in assay [5] it was 11.9%. Further, the Kd in assay [4] amounted to 0.43 nM. This molecule also returned a dissociation rate constant (koff) in assay [4] of 0.00037 s⁻¹. Also, the kon in assay [4] was found to be 870000 M⁻¹ s⁻¹.

B5: HCV 208A-222 (antibody, V domains shown)
VH: B1 VH with K19R, M43K, S54N, F103Y
VL: B1 VL
For the molecule B5, the expected percent binding in assay [1] was 18.8%; in assay [2] it was 15.6%; in assay [3] it was 15%; in assay [5] it was 10.7%. Moreover, the dissociation constant (Kd) in assay [4] worked out at 0.31 nM. The molecule further returned a koff in assay [4] of 0.00035 s⁻¹. Besides, the kon in assay [4] worked out at 1.1e+06 M⁻¹ s⁻¹.

B6: HCV 208A-877 (antibody, V domains shown)
VH: QLQQSGPELVKPGASVKISCKTSGYTFTENAMHWVKQSRGKSLEWIGGVNPNNGDTVYTQKFKGKATLTVAKSSSTAYMELRTMTCEESTVYYCASREPDFFDYWGQGSSVTVSS
VL: QIVLTQSPAIMSVSPGEKVSMTCSASSSVTYMHWYQQKSGTSPKRWIYDTSELASGVPARFSGSGSGTTYSLTISSMEAEDAATYYCQQWSNKPLTFGAGTKLELKR
Consider B6, for which the expected percent binding in assay [1] was determined as 12.1%; in assay [2], 9.4%; in assay [3], 10.7%; in assay [5], 5.9%. For the same molecule, the Kd in assay [4] was determined as 2.2 nM. For the same molecule, in assay [4], the koff amounted to 0.0024 s⁻¹. In assay [4], this molecule registered a kon of 1.1e+06 M⁻¹ s⁻¹.

B7: HCV 208A-638 (antibody, V domains shown)
VH: QGQLQQPGAEFVKPGASLKLSCRASGYTFTSYWIHWVKQRPGQGLEWIGEVDPSDSYINQNEKFRGKATLTVDKSSSTAYMQLGSLTSEDSAVYYCARHYYGVLDSWGQGTALTVSS
VL: QIVLTQSPTIMSASLGERVTMTCTASSSVSSSYLHWFQQKPGSSPKLWIYSTSNLASGVPPRFSGSGSGTSYSLSISSVEAEDVATYYCLQFHRSPWTFGGGAKLEIKR
On to B7, for which the expected percent binding in assay [1] amounted to 16.9%; in assay [2], 14.1%; in assay [3], 13.3%; in assay [5] it was 9.2%. This molecule came in with a Kd in assay [4] of 0.2 nM. For the same molecule, in assay [4], the off-rate constant (koff) came to 0.00053 s⁻¹. In assay [4], this molecule yielded a kon of 2.7e+06 M⁻¹ s⁻¹.

B8: HCV 208B-189 (antibody, V domains shown)
VH: QVHLQQSGAELAKPGASVQMSCKASGYTFTANKMHWARQRPRQGLEWIGYIDPASGYTEYNQKIKDRATLTADKSSSTAYMQLSSLTSEDSAVYYCTNFAYWGQGTLVTVST
VL: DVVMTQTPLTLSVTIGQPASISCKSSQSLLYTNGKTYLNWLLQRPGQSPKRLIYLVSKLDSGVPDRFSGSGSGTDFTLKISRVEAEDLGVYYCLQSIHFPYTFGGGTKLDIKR
Regarding B8, the expected percent binding is 2.9% in assay [1], 2.3% in assay [2], 2.7% in assay [3] and at most 1% in assay [5]. The molecule further yielded a Kd in assay [4] of 0.17 nM. Moreover, the koff in assay [4] was 0.00015 s⁻¹. Besides, the kon in assay [4] was 880000 M⁻¹ s⁻¹.

B9: HCV 208A-352 (antibody, V domains shown)
VH: B3 VH with Y33F, L83F
VL: DVLMAQTPLSLPVTLGDQASISCRSSQSLVHSNGNTYLEWFLQKPGQSPKLLIYNVSNRFSGVPDRFSGSGSGTDFTLKISRVEAEDLGVYYCFQGSHVPLTFGSGTKLEIKR
For the molecule B9, the expected percent binding in assay [1], in assay [2], in assay [3] and in assay [5] was at most 1% in each case. This molecule also gave a Kd in assay [4] of 0.52 nM. For the same molecule, the koff in assay [4] stood at 5.4e-05 s⁻¹. The kon in assay [4] is 100000 M⁻¹ s⁻¹.

B10: HCV 208B-1024 (antibody, V domains shown)
VH: EVQLVESGGDLVKPGGSLKLSCAASGFTFSNYGMSWVRQTPDKRLEWVATISSGGSYSYYPDSVKGRFTISRDNAKNILYLQMSSLKSEDTAMYYCASLYYGYGDYWGQGTAFTVSS
VL: B9 VL with A5T, T14S, L29I, F41Y, P45L, N55R, L101W, S105G
As to B10, the expected percent binding came out at 14.3% in assay [1], 10.9% in assay [2], 12.2% in assay [3] and 7.1% in assay [5]. The molecule further gave a dissociation constant Kd in assay [4] of 15 nM. Also, the koff in assay [4] came to 0.014 s⁻¹. Further, the kon in assay [4] amounted to 1e+06 M⁻¹ s⁻¹.

B11: HCV 208B-281 (antibody, V domains shown)
VH: B3 VH with M4L, K40R, N57G, L83F, T104I
VL: B9 VL with A5T, T14S, S32N, N55K, L101F
As to B11, the expected percent binding in assay [1], in assay [2], in assay [3] and in assay [5] was at most 1% throughout. The molecule further registered a Kd in assay [4] of 96 nM. This molecule also gave a koff in assay [4] of 0.00025 s⁻¹. Moreover, the kon in assay [4] amounted to 2200 M⁻¹ s⁻¹.

B12: HCV 208B-1096 (antibody, V domains shown)
VH: QVQLQQSGAGLAKPGASVKMSCKASGYTFTANKMHWAKQRPGQGLEWIGYIDPSSGYTEYNHKIQYKATLTADTSSSTAYMQLSTLTFEDSAVYYCTNFAYWGQGTLVTVSA
VL: DIVMTQTPLTLSVTIGQPASISCKSSQSLLFTNGKTYLNWFLQRPGQSPKRLIYLLSKLDSGVPDRFSGSGSGTDFTLKISRVEAEDLGVYYCLQSTYFPLTFGAGTKLELKR
In the case of B12, the expected percent binding was 16.9% in assay [1], 15.1% in assay [2], 16.3% in assay [3] and 11.4% in assay [5]. In assay [4], this molecule showed a dissociation constant (Kd) of 0.46 nM. In assay [4], this molecule yielded an off-rate constant (koff) of 0.0006 s⁻¹. This molecule also yielded a kon in assay [4] of 1.3e+06 M⁻¹ s⁻¹.

B13: HCV 208B-395 (antibody, V domains shown)
VH: B12 VH with A37T, E59Q, Y66D, T85S
VL: DIVLTQSPATLSVTPGDRVSLSCRASQRIYNYLHWYQQKSHESPRLLIKYASQSISGIPSRFSGSGSGTDFILTINSVETEDFGMYFCQQSNSWPLTFGAGTKLELRR
In the case of B13, the expected percent binding in assay [1] was determined as 9.4%; in assay [2], 7.6%; in assay [3], 7.8%; in assay [5], 5.2%. The affinity in assay [4], expressed as Kd, was 0.36 nM. Moreover, in assay [4], the off-rate (koff) came out at 0.00047 s⁻¹. In assay [4], this molecule came in with a kon of 1.3e+06 M⁻¹ s⁻¹.

B14: HCV 208B-547 (antibody, V domains shown)
VH: B8 VH with H3Q, Q19K, A31S, R38K, R42G, A54S, R67K, T112A
VL: EVVLTQSPAITAASLGQKVTITCRASSSVSYMHWYRQKSGTSPQPWIYEISTLASGVPTRFRASGSGTSYSLTISSMEAEDAAIYYCQQWNYPLTFGAGTKLELKR
As to B14, the expected percent binding in assay [1] turned out to be 8.3%; in assay [2], 7.2%; in assay [3] it was 8.2%; in assay [5], 4.9%. For the same molecule, the Kd in assay [4] was determined as 3.2 nM. Further, in assay [4], the koff is 0.0049 s⁻¹. In assay [4], the kon stood at 1.6e+06 M⁻¹ s⁻¹.

B15: HCV 208B-589 (antibody, V domains shown)
VH: B12 VH with Y66D, T85S
VL: B12 VL
As to B15, the expected percent binding came to 11.7% in assay [1], 9.4% in assay [2], 9.9% in assay [3] and 6.7% in assay [5]. Further, the Kd in assay [4] came out at 0.63 nM. In assay [4], the koff is 0.00061 s⁻¹. In assay [4], this molecule displayed an on-rate constant (kon) of 960000 M⁻¹ s⁻¹.
